Measured values: patent publication US20250262210A1 (TRUSTEES OF COLUMBIA UNIVERSITY IN THE CITY OF NEW YORK, published 2025)

T1: LZTR1 R810W-FLAG (human, UniProt Q8N653 1-840)
T1 construct: Stably expressed in U87 cells by lentivirus; also called LZTR1-FLAG-R810W; LZTR1 RW; not shown: FLAG tag
T1 sequence (looked up): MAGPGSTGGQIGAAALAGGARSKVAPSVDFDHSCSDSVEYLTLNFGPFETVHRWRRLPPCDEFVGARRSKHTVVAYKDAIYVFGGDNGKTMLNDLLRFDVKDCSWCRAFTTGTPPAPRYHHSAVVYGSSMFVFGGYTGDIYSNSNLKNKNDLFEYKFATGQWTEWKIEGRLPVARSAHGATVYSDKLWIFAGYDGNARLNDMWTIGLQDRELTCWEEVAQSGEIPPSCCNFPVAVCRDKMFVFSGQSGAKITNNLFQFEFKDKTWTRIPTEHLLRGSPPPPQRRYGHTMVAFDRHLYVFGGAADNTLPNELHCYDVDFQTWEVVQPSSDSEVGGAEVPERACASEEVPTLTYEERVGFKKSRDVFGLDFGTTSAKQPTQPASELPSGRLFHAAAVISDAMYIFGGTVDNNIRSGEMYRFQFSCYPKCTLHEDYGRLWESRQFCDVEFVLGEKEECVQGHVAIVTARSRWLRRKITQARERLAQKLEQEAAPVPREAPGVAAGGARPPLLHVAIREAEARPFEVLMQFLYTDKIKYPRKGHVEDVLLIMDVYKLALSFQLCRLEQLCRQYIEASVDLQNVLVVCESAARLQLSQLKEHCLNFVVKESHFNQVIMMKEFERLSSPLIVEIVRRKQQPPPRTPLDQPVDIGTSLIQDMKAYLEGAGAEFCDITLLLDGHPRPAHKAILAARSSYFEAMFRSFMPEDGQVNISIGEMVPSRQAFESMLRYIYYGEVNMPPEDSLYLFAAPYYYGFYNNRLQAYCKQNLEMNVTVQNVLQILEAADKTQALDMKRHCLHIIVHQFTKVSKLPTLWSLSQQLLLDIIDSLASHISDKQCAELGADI

T2: LZTR1-FLAG (human, UniProt Q8N653 1-840)
T2 construct: Expressed in HEK 293T, HeLa or U87 cells; used as cell lysate; also called LZTR1 wild type-FLAG; LZTR1 WT; not shown: FLAG tag at the C-terminus
T2 sequence (looked up): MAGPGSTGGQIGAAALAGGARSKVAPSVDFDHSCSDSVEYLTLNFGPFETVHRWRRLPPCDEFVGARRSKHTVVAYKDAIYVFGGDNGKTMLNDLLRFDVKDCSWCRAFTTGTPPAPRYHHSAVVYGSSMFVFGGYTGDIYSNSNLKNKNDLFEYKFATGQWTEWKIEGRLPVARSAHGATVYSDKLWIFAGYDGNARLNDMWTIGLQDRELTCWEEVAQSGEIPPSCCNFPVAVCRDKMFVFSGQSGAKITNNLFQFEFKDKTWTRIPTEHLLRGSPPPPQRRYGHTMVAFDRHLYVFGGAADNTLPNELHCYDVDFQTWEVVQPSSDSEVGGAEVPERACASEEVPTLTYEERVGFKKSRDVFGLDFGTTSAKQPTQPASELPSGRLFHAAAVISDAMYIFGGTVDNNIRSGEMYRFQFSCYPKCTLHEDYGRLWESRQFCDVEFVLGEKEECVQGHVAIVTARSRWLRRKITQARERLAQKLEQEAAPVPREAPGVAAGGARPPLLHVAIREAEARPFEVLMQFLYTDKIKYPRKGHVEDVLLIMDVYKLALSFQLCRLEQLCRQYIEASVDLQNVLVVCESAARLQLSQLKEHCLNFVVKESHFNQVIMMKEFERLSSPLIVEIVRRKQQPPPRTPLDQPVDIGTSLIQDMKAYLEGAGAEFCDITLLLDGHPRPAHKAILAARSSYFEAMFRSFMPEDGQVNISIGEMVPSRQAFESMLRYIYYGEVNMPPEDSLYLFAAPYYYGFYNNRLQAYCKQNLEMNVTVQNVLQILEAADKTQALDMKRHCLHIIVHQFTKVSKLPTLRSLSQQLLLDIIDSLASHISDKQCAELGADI


What was measured:
LZTR1 R810W-FLAG = target: T1, LZTR1 R810W-FLAG; experiment: IP/MS, LZTR1 R810W-FLAG, U87
Procedure, shortened: (§1)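 Read-out: spectral counts from LC-MS/MS (Orbitrap Fusion) after MaxQuant identification. Variable modifications were Met oxidation, protein N-terminal acetylation and N/Q deamidation.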

LZTR1-FLAG = target: T2, LZTR1-FLAG; experiment: IP/MS, LZTR1 wild type-FLAG, U87
Procedure, shortened: as §1

| binding result (LZTR1 R810W-FLAG) | binding result (LZTR1-FLAG) | Binder |
| --- | --- | --- |
| binds | binds | MALT1 (other, human, UniProt Q9UDY8 2-824, looked up) SLLGDPLQALPPSAAPTGPLLAPPAGATLNRLREPLLRRLSELLDQAPEGRGWRRLAELAGSRGRLRLSCLDLEQCSLKVLEPEGSPSLCLLKLMGEKGCTVTELSDFLQAMEHTEVLQLLSPPGIKITVNPESKAVLAGQFVKLCCRATGHPFVQYQWFKMNKEIPNGNTSELIFNAVHVKDAGFYVCRVNNNFTFEFSQWSQLDVCDIPESFQRSVDGVSESKLQICVEPTSQKLMPGSTLVLQCVAVGSPIPHYQWFKNELPLTHETKKLYMVPYVDLEHQGTYWCHVYNDRDSQDSKKVEIIIGRTDEAVECTEDELNNLGHPDNKEQTTDQPLAKDKVALLIGNMNYREHPKLKAPLVDVYELTNLLRQLDFKVVSLLDLTEYEMRNAVDEFLLLLDKGVYGLLYYAGHGYENFGNSFMVPVDAPNPYRSENCLCVQNILKLMQEKETGLNVFLLDMCRKRNDYDDTIPILDALKVTANIVFGYATCQGAEAFEIQHSGLANGIFMKFLKDRLLEDKKITVLLDEVAEDMGKCHLTKGKQALEIRSSLSEKRALTDPIQGTEYSAESLVRNLQWAKAHELPESMCLKFDCGVQIQLGFAAEFSNVMIIYTSIVYKPPEIIMCDAYVTDFPLDLDIDPKDANKGTPEETGSYLVSKDLPKHCLYTRLSSLQKLKEHLVFTVCLSYQYSGLEDTVEDKQEVNVGKPLIAKLDMHRGLGRKTCFQTCLMSNGPYQSSAATSGGAGHYHSLQDPFHGVYHSHPGNPSNVTPADSCHCSRTPDAFISSFAHHASCHFSRSNVPVETTDEIPFSFSDRLRISEK |
| binds | binds | NDC80 (other, human, UniProt O14777 1-642, looked up) MKRSSVSSGGAGRLSMQELRSQDVNKQGLYTPQTKEKPTFGKLSINKPTSERKVSLFGKRTSGHGSRNSQLGIFSSSEKIKDPRPLNDKAFIQQCIRQLCEFLTENGYAHNVSMKSLQAPSVKDFLKIFTFLYGFLCPSYELPDTKFEEEVPRIFKDLGYPFALSKSSMYTVGAPHTWPHIVAALVWLIDCIKIHTAMKESSPLFDDGQPWGEETEDGIMHNKLFLDYTIKCYESFMSGADSFDEMNAELQSKLKDLFNVDAFKLESLEAKNRALNEQIARLEQEREKEPNRLESLRKLKASLQGDVQKYQAYMSNLESHSAILDQKLNGLNEEIARVELECETIKQENTRLQNIIDNQKYSVADIERINHERNELQQTINKLTKDLEAEQQKLWNEELKYARGKEAIETQLAEYHKLARKLKLIPKGAENSKGYDFEIKFNPEAGANCLVKYRAQVYVPLKELLNETEEEINKALNKKMGLEDTLEQLNAMITESKRSVRTLKEEVQKLDDLYQQKIKEAEEEDEKCASELESLEKHKHLLESTVNQGLSEAMNELDAVQREYQLVVQTTTEERRKVGNNLQRLLEMVATHVGSVEKHLEEQIAKVDREYEECMSEDLSENIKEIRDKYEKKATLIKSSEE |
| binds | binds | MELK (other, human, UniProt Q14680 1-651, looked up) MKDYDELLKYYELHETIGTGGFAKVKLACHILTGEMVAIKIMDKNTLGSDLPRIKTEIEALKNLRHQHICQLYHVLETANKIFMVLEYCPGGELFDYIISQDRLSEEETRVVFRQIVSAVAYVHSQGYAHRDLKPENLLFDEYHKLKLIDFGLCAKPKGNKDYHLQTCCGSLAYAAPELIQGKSYLGSEADVWSMGILLYVLMCGFLPFDDDNVMALYKKIMRGKYDVPKWLSPSSILLLQQMLQVDPKKRISMKNLLNHPWIMQDYNYPVEWQSKNPFIHLDDDCVTELSVHHRNNRQTMEDLISLWQYDHLTATYLLLLAKKARGKPVRLRLSSFSCGQASATPFTDIKSNNWSLEDVTASDKNYVAGLIDYDWCEDDLSTGAATPRTSQFTKYWTESNGVESKSLTPALCRTPANKLKNKENVYTPKSAVKNEEYFMFPEPKTPVNKNQHKREILTTPNRYTTPSKARNQCLKETPIKIPVNSTGTDKLMTGVISPERRCRSVELDLNQAHMEETPKRKGAKVFGSLERGLDKVITVLTRSKRKGSARDGPRRLKLHYNVTTTRLVNPDQLLNEIMSILPKKHVDFVQKGYTLKCQTQSDFGKVTMQFELEVCQLQKPDVVGIRRQRLKGDAWVYKRLVEDILSSCKV |
| binds | binds | NGLY1 (other, human, UniProt Q96IV0 2-654, looked up) AAAALGSSSGSASPAVAELCQNTPETFLEASKLLLTYADNILRNPNDEKYRSIRIGNTAFSTRLLPVRGAVECLFEMGFEEGETHLIFPKKASVEQLQKIRDLIAIERSSRLDGSNKSHKVKSSQQPAASTQLPTTPSSNPSGLNQHTRNRQGQSSDPPSASTVAADSAILEVLQSNIQHVLVYENPALQEKALACIPVQELKRKSQEKLSRARKLDKGINISDEDFLLLELLHWFKEEFFHWVNNVLCSKCGGQTRSRDRSLLPSDDELKWGAKEVEDHYCDACQFSNRFPRYNNPEKLLETRCGRCGEWANCFTLCCRAVGFEARYVWDYTDHVWTEVYSPSQQRWLHCDACEDVCDKPLLYEIGWGKKLSYVIAFSKDEVVDVTWRYSCKHEEVIARRTKVKEALLRDTINGLNKQRQLFLSENRRKELLQRIIVELVEFISPKTPKPGELGGRISGSVAWRVARGEMGLQRKETLFIPCENEKISKQLHLCYNIVKDRYVRVSNNNQTISGWENGVWKMESIFRKVETDWHMVYLARKEGSSFAYISWKFECGSVGLKVDSISIRTSSQTFQTGTVEWKLRSDTAQVELTGDNSLHSYADFSGATEVILEAELSRGDGDVAWQHTQLFRQSLNDHEENCLEIIIKFSDL |
| binds | binds | PAFAH1B1 (other, human, UniProt P43034 1-410, looked up) MVLSQRQRDELNRAIADYLRSNGYEEAYSVFKKEAELDVNEELDKKYAGLLEKKWTSVIRLQKKVMELESKLNEAKEEFTSGGPLGQKRDPKEWIPRPPEKYALSGHRSPVTRVIFHPVFSVMVSASEDATIKVWDYETGDFERTLKGHTDSVQDISFDHSGKLLASCSADMTIKLWDFQGFECIRTMHGHDHNVSSVAIMPNGDHIVSASRDKTIKMWEVQTGYCVKTFTGHREWVRMVRPNQDGTLIASCSNDQTVRVWVVATKECKAELREHEHVVECISWAPESSYSSISEATGSETKKSGKPGPFLLSGSRDKTIKMWDVSTGMCLMTLVGHDNWVRGVLFHSGGKFILSCADDKTLRVWDYKNKRCMKTLNAHEHFVTSLDFHKTAPYVVTGSVDQTVKVWECR |
| binds | binds | MCMBP (other, human, UniProt Q9BTE3 1-642, looked up) MPCGEDWLSHPLGIVQGFFAQNGVNPDWEKKVIEYFKEKLKENNAPKWVPSLNEVPLHYLKPNSFVKFRCMIQDMFDPEFYMGVYETVNQNTKAHVLHFGKYRDVAECGPQQELDLNSPRNTTLERQTFYCVPVPGESTWVKEAYVNANQARVSPSTSYTPSRHKRSYEDDDDMDLQPNKQKDQHAGARQAGSVGGLQWCGEPKRLETEASTGQQLNSLNLSSPFDLNFPLPGEKGPACLVKVYEDWDCFKVNDILELYGILSVDPVLSILNNDERDASALLDPMECTDTAEEQRVHSPPASLVPRIHVILAQKLQHINPLLPACLNKEESKTCKFVSSFMSELSPVRAELLGFLTHALLGDSLAAEYLILHLISTVYTRRDVLPLGKFTVNLSGCPRNSTFTEHLYRIIQHLVPASFRLQMTIENMNHLKFIPHKDYTANRLVSGLLQLPSNTSLVIDETLLEQGQLDTPGVHNVTALSNLITWQKVDYDFSYHQMEFPCNINVFITSEGRSLLPADCQIHLQPQLIPPNMEEYMNSLLSAVLPSVLNKFRIYLTLLRFLEYSISDEITKAVEDDFVEMRKNDPQSITADDLHQLLVVARCLSLSAGQTTLSRERWLRAKQLESLRRTRLQQQKCVNGNEL |
